US20120114665A1 (Regeneron, published 2012)

T1: human RANKL (receptor activator of NF-κB ligand) (human, UniProt O14788 140-317, limits assumed)
T1 sequence: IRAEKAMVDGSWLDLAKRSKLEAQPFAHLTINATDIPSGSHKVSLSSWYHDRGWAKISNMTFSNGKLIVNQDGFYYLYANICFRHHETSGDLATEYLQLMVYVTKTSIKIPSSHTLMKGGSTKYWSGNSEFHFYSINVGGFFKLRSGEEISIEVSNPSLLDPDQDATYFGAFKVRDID

T2: penta-his-tagged hRANKL (human)
T2 construct: also called his-hRANKL; not shown: penta-his tag
T2 chain: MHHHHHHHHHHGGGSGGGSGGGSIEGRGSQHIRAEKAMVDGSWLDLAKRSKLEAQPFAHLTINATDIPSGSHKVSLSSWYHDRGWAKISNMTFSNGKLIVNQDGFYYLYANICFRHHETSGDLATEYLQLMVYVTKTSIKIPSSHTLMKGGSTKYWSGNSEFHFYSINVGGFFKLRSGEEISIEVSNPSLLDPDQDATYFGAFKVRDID

T3: penta-his-tagged monkey (Macaca fascicularis) RANKL (Macaca fascicularis, UniProt O14788 125-317 (human entry))
T3 construct: also called his-mfRANKL; mfRANKL; not shown: penta-his tag
T3 chain: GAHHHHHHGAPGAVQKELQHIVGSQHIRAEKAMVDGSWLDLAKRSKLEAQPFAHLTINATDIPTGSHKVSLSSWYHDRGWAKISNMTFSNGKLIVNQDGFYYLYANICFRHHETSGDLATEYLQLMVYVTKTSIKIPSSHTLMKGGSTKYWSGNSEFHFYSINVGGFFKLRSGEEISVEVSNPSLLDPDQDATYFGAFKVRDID


Assays:
[1] = biological target: T1, human RANKL (receptor activator of …); test: cell-based or functional assay
[2] = biological target: T1, human RANKL (receptor activator of …); test: SPR (BIACORE), purified antibody, 25°C
[3] = biological target: T1, human RANKL (receptor activator of …); test: SPR (BIACORE), purified antibody, 37°C
penta-his-tagged hRANKL = biological target: T2, penta-his-tagged hRANKL; test: competition ELISA: 150 pM his-hRANKL pre-mixed with antibody, free RANKL detected on hRANK-hFc plate
Protocol: (§1) Briefly, hRANK-hFc protein was coated on a 96-well plate in PBS buffer overnight at 4° C. at 2 μg/ml, and nonspecific binding was blocked with BSA, to form a hRANK-hFc surface.

[4] = biological target: T3, penta-his-tagged monkey (Macaca …); test: competition ELISA: 150 pM his-mfRANKL pre-mixed with antibody, free RANKL detected on hRANK-hFc plate
Protocol: as §1

[5] = biological target: T1, human RANKL (receptor activator of …); test: SPR (BIACORE 2000), antibody captured on anti-hFc, hRANKL injected
Protocol: Equilibrium dissociation constants (KD values) for antigen binding to the selected antibodies generated by hybridoma cell lines described above were determined by surface kinetics in a real-time biosensor surface plasmon resonance assay (BIACORE™ 2000). Each selected antibody was captured on a goat anti-mouse IgG polyclonal antibody surface created through direct chemical coupling to a BIACORE™ chip to form a captured antibody surface.
Each selected antibody was captured on a goat anti-hFc polyclonal antibody (Jackson Immuno Research Lab) surface created through direct chemical coupling to a BIACORE™ chip to form a captured antibody surface (Table 2).

Row | Binder | IC50, hRANKL-inducible luciferase activity in HK293/RANK/NFκB-luc-eGFP cells [1] [nM] | Kd [2] [nM] | Kd [3] [nM] | IC50 (penta-his-tagged hRANKL) [nM] | IC50 [4] [nM] | Kd [5] [nM]
1 | H4H002P (antibody, V domains shown, Purified antibody from clone 1F8) VH: QVQLVESGGGVVQPGRSLRLSCAASGFTFTGYGMHWVRQAPDKGLEWVAVISYDGTNKYYVDSVKGRFTISRDNSQNTLYLQMNSLRAEDTAVYYCAKCLSGTYWGYGMDVWGQGTTVTVS VL: DIQMTQSPSTLSASVGDRVTITCRASRSINSWLAWYQQKPGKAPKLLIYKASSLESGVPSRFSGSGSGTEFTLTISSLQPDDFASYYCQQYNNYSWTFGQGTKVEIK | 0.214 | 0.262 | 0.0531 | 0.165 | 1.36 | –
2 | 2H10 (antibody, V domains shown, From direct isolation of splenocytes; captured on anti-hFc; also called H4H009N) VH: QVQLVESGGGVVQPGRSLRLSCAASGFTFSGYGIHWVRQAPDKGLEWVAVISYDGTNKYYGDSVKGRFTISRDNTKNTLYLQMNSLRTEDTAVYYCAKSLSGTYWGYGMDVWGQGTTVTVSS VL: AIQMTQSPSTLSASVGDRVTITCRASQNIGNWLAWYQQKPGKAPKLLIYKASSLQNGVPSRFSGSGSGTEFTLTISSLQPDDFATYYCQRYNSYSWTFGQGTKVEIK | – | – | – | – | – | 0.0158
3 | 2H12 (antibody, V domains shown, From direct isolation of splenocytes; captured on anti-hFc; also called H4H010N) VH: QVQLVQSGGGVVQPGRSLRLSCAASGFTFSGYGMHWVRQAPGKGLDWVTVISYDGSNKHYADSVKGRFTISRDNSKNTLYLQMSSLGPEDTAVYYCAKSLSGTYWGYGMDVWGQGTTVTVSS VL: AIQMTQSPSTLSASVGDRVTITCRASQNISSWLAWYQQKPGKAPKLLIYKASSLESGVPSRFSGSGSGTEFTLTVSSLQPDDFATYYCQQYNRYSWTFGQGTKVEIK | – | – | – | – | – | 0.0331
4 | 2E11 (antibody, V domains shown, From direct isolation of splenocytes; captured on anti-hFc; also called H4H006N) VH: QVQLVQSGGGVVQPGRSLRLSCAASGFTFGGYGMHWVRQAPDKGLEWVAVISYDGNNKYYVDSVKGRFTISRDNSKNMLYLQMNSLRAEDTAVYYCAKCLSGTYWGYGMDGWGQGTTVTVSS VL: DIQMTQSPSTLSASVGDRVTITCRASQSISNWLAWYQQKPGKAPKLLIYKASNLQSGVPSRFSGSGSGTEFTLTISSLQPDDFATYYCQQYNNYSWTFGQGTKVEIK | – | – | – | – | – | 0.016
5 | 2E12 (antibody, V domains shown, From direct isolation of splenocytes; captured on anti-hFc; also called H4H007N) VH: QVQLVQSGGGVVQPGRSLRLSCAASGFTFSGYGMHWVRQAPGMGLEWVAVISYDGINKYYADSVKGRFTISRDNSKNTLFLQMNSLRAEDTALYYCAKCLSGTYWGYGMDVWGQGTTVTVSS VL: AIQMTQSPSTLSASVGDRVTITCRASQSISSWLAWYQLKPGKAPKLLIYKASSLESGVPSRFGGSGSGTEFTLTISSLQPDDFATYYCQHYNSYSWTFGQGTKVEIK | – | – | – | – | – | 0.0957
6 | 2E10 (antibody, V domains shown, From direct isolation of splenocytes; captured on anti-hFc; also called H4H005N) VH: QVQLVQSGGGVVHPGRSLTLSCAASGFTFSGYGMHWVRQAPGKGLEWVAVISYDGINKYYADSVKGRFTISRDNSKNTLYLQMNSLRAEDTAIYYCAKCLSGSYWGFGMDVWGQGTTVTVSS VL: not shown | – | – | – | – | – | 0.0172
7 | 2G10 (antibody, V domains shown, From direct isolation of splenocytes; captured on anti-hFc; also called H4H008N) VH: QVQLVQSGGGVVQPGRSLRLSCAASGFTFSGFGMHWVRQAPGKGLEWVAIISYDGRNKYYADSVKGRFTISRDNSKNTLYLQMNSLRAEDTAVYYCAKSLSGTYWGYGMDVWGQGTTVTVSS VL: not shown | – | – | – | – | – | 0.028
8 | 1F8 (antibody, V domains shown, From direct isolation of splenocytes; captured on anti-hFc; also called H4H002N) VH: QVQLVQSGGGVVQPGRSLRLSCAASGFTFTGYGMHWVRQAPDKGLEWVAVISYDGTNKYYVDSVKGRFTISRDNSQNTLYLQMNSLRAEDTAVYYCAKCLSGTYWGYGMDVWGQGTTVTVSS VL: AIQMTQSPSTLSASVGDRVTITCRASRSINSWLAWYQQKPGKAPKLLIYKASSLESGVPSRFSGSGSGTEFTLTISSLQPDDFASYYCQQYNNYSWTFGQGTKVEIK | – | – | – | – | – | 0.00785
9 | H4H005G (antibody, V domains shown, Purified antibody from clone 2E10) VH: QVQLVESGGGVVQPGRSLRLSCAASGFTFSGYGMHWVRQAPGKGLEWVAVISYDGINKYYADSVKGRFTISRDNSKNTLYLQMNSLRAEDTAVYYCAKCLSGSYWGFGMDVWGQGTTVTVS VL: not shown | 1.06 | 0.0762 | 0.0241 | 3.13 | 9.59 | –

Continued, values first:

Row | IC50, hRANKL-inducible luciferase activity in HK293/RANK/NFκB-luc-eGFP cells [1] [nM] | Kd [2] [nM] | Kd [3] [nM] | IC50 (penta-his-tagged hRANKL) [nM] | IC50 [4] [nM] | Kd [5] [nM] | Binder
10 | 0.171 | 0.265 | 0.0415 | 0.195 | 1.24 | – | H4H006G (antibody, V domains shown, Purified antibody from clone 2E11) VH: QVQLVESGGGVVQPGRSLRLSCAASGFTFGGYGMHWVRQAPGKGLEWVAVISYDGNNKYYADSVKGRFTISRDNSKNTLYLQMNSLRAEDTAVYYCAKCLSGTYWGYGMDGWGQGTTVTVS VL: not shown
11 | 1.17 | 0.601 | 0.0453 | 1.16 | 4.32 | – | H4H005P (antibody, V domains shown, Purified antibody from clone 2E10) VH: QVQLVESGGGVVHPGRSLTLSCAASGFTFSGYGMHWVRQAPGKGLEWVAVISYDGINKYYADSVKGRFTISRDNSKNTLYLQMNSLRAEDTAIYYCAKCLSGSYWGFGMDVWGQGTTVTVS VL: not shown
12 | 0.08 | 0.172 | 0.044 | 0.085 | 0.42 | – | H4H006P (antibody, V domains shown, Purified antibody from clone 2E11) VH: QVQLVESGGGVVQPGRSLRLSCAASGFTFGGYGMHWVRQAPDKGLEWVAVISYDGNNKYYVDSVKGRFTISRDNSKNMLYLQMNSLRAEDTAVYYCAKCLSGTYWGYGMDGWGQGTTVTVS VL: DIQMTQSPSTLSASVGDRVTITCRASQSISNWLAWYQQKPGKAPKLLIYKASNLQSGVPSRFSGSGSGTEFTLTISSLQPDDFATYYCQQYNNYSWTFGQGTKVEIK
13 | 0.102 | 0.198 | 0.0424 | 0.065 | 0.875 | – | H4H009G (antibody, V domains shown, Purified antibody from clone 2H10) VH: not shown VL: DIQMTQSPSTLSASVGDRVTITCRASQNIGNWLAWYQQKPGKAPKLLIYKASSLESGVPSRFSGSGSGTEFTLTISSLQPDDFATYYCQRYNSYSWTFGQGTKVEIK
14 | 0.051 | 0.0697 | 0.0779 | 0.045 | 0.15 | – | H4H010P (antibody, V domains shown, Purified antibody from clone 2H12) VH: QVQLVESGGGVVQPGRSLRLSCAASGFTFSGYGMHWVRQAPGKGLDWVTVISYDGSNKHYADSVKGRFTISRDNSKNTLYLQMSSLGPEDTAVYYCAKSLSGTYWGYGMDVWGQGTTVTVS VL: DIQMTQSPSTLSASVGDRVTITCRASQNISSWLAWYQQKPGKAPKLLIYKASSLESGVPSRFSGSGSGTEFTLTVSSLQPDDFATYYCQQYNRYSWTFGQGTKVEIK
15 | 0.452 | 0.335 | 0.0578 | 0.335 | 2.76 | – | H4H007P (antibody, V domains shown, Purified antibody from clone 2E12) VH: QVQLVESGGGVVQPGRSLRLSCAASGFTFSGYGMHWVRQAPGMGLEWVAVISYDGINKYYADSVKGRFTISRDNSKNTLFLQMNSLRAEDTALYYCAKCLSGTYWGYGMDVWGQGTTVTVS VL: DIQMTQSPSTLSASVGDRVTITCRASQSISSWLAWYQLKPGKAPKLLIYKASSLESGVPSRFGGSGSGTEFTLTISSLQPDDFATYYCQHYNSYSWTFGQGTKVEIK
